# Measured values from publication PMC5102582 (eLife, 2016).
# B1: full-length p47 (natural protein, Mus musculus, UniProt Q9CZ44 1-370, looked up)
# chain: MAEERQDALREFVAVTGTEEDRARFFLESAGWDLQIALASFYEDGGDEDIVTISQATPSSVSRGTAPSDNRVTSFRDLIHDQDEEEEEEEGQRFYAGGSERSGQQIVGPPRKKSPNELVDDLFKGAKEHGAVAVERVTKSPGETSKPRPFAGGGYRLGAAPEEESAYVAGERRRHSGQDVHVVLKLWKTGFSLDNGDLRSYQDPSNAQFLESIRRGEVPAELRRLAHGGQVNLDMEDHRDEDFVKPKGAFKAFTGEGQKLGSTAPQVLNTSSPAQQAENEAKASSSILINEAEPTTNIQIRLADGGRLVQKFNHSHRISDIRLFIVDARPAMAATSFVLMTTFPNKELADENQTLKEANLLNAVIVQRLT
# notes: p47 (NSFL1 cofactor p47), Mus musculus, full length; perdeuterated; eluted as a trimer on gel filtration; also called p47 trimer; not shown: His6, N-terminal, cleaved
# B2: UBXD1-N (N-terminal portion of UBXD1, residues 1-133) (domain or fragment, Mus musculus, UniProt Q99PL6 1-133, looked up)
# chain: MKKFFQEIKADIKFKSAGPGQKLTDSAGEKTTKGKSPQLALRQPRQGPTDEAQMAAAAALARLEQKQPRARGPTSQDSIRNQVRKELQAEATSSNNPGAPGTNSVPEPKEEISPHLAVPGVFFICPLTGVTLR
# notes: UBXD1, Mus musculus, residues 1-133 (holds H1/H2 and VIM, residues 52-63); perdeuterated; construct after Trusch et al., 2015; not shown: His6, N-terminal, cleaved
# Legend:
# [1] = target: the molecule itself; test: SEC; HiLoad 16/60 Superdex 200 gel filtration column, during purification of full-length p47
# R95G ND1Lp97-ADP = target: T1, R95G ND1Lp97-ADP (Homo sapiens/Mus musculus (identical), UniProt P55072 1-480, R95G); test: NMR titration; one point: 150 µM UBXD1-N added to 50 µM (monomer) wt or mutant ND1Lp97-ADP (3:1); methyl-TROSY HMQC CSPs; Kd from the bound fraction by the V68 shift; 50°C; 25 mM HEPES pH 7.0, 50 mM NaCl, 10 mM ADP, 5 mM TCEP, D2O; settings: both partners purified
# T1 construct: p97/VCP, Homo sapiens/Mus musculus (identical), residues 1-480, IBMPFD disease mutation R95G; deuterated, ILVM-13CH3 labelled; mutation found in IBMPFD patients; also called R95G mutant; not shown: His6, N-terminal, cleaved
# R155H ND1Lp97-ADP = target: T2, R155H ND1Lp97-ADP (Homo sapiens/Mus musculus (identical), UniProt P55072 1-480, R155H); test: as above; settings: both partners purified
# T2 construct: p97/VCP, Homo sapiens/Mus musculus (identical), residues 1-480, IBMPFD disease mutation R155H; deuterated, ILVM-13CH3 labelled; mutation found in IBMPFD patients; not shown: His6, N-terminal, cleaved
# N387H ND1Lp97-ADP = target: T3, N387H ND1Lp97-ADP (Homo sapiens/Mus musculus (identical), UniProt P55072 1-480, N387H); test: as above; settings: both partners purified
# T3 construct: p97/VCP, Homo sapiens/Mus musculus (identical), residues 1-480, IBMPFD disease mutation N387H; deuterated, ILVM-13CH3 labelled; mutation found in IBMPFD patients; not shown: His6, N-terminal, cleaved
# R155P ND1Lp97-ADP = target: T4, R155P ND1Lp97-ADP (Homo sapiens/Mus musculus (identical), UniProt P55072 1-480, R155P); test: as above; settings: both partners purified
# T4 construct: p97/VCP, Homo sapiens/Mus musculus (identical), residues 1-480, IBMPFD disease mutation R155P; deuterated, ILVM-13CH3 labelled; mutation found in IBMPFD patients; not shown: His6, N-terminal, cleaved
# [2] = target: T5, wt ND1Lp97-ADP (p97/VCP residues 1-480: NTD, D1 and the D1-D2 linker) (Homo sapiens/Mus musculus (identical), UniProt P55072 1-480); test: NMR titration; methyl-TROSY 13C-1H HMQC chemical shift titration of ILVM-13CH3 wt ND1Lp97-ADP with perdeuterated UBXD1-N; global analysis of V68, L140, I175, I182; effective macroscopic Kd; 50°C; 25 mM HEPES pH 7.0, 50 mM NaCl, 10 mM ADP, 5 mM TCEP, D2O; a new sample for each ligand concentration; settings: both partners purified
# T5 construct: p97/VCP, Homo sapiens/Mus musculus (identical), UniProt P55072 versus Q01853, residues 1-480; highly deuterated, ILVM-13CH3 methyl labelled; 320 kDa hexamer (6 x 53 kDa); also called p97 ND1L 1-480; NDL1p97-ADP; not shown: His6, N-terminal, cleaved
# T5 sequence (P55072 1-480): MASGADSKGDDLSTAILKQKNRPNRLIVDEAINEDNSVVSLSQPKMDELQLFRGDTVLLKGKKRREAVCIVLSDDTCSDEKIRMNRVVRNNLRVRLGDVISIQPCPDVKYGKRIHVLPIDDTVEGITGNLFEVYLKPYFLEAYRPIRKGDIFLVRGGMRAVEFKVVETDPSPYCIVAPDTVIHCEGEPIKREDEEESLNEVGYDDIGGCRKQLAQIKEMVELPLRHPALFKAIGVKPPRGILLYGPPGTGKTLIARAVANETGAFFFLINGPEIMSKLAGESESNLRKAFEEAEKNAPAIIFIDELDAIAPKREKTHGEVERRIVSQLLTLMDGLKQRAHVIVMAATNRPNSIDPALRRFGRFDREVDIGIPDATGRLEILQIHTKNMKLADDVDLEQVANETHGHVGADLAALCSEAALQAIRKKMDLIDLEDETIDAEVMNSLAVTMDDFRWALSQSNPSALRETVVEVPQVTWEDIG
# T1 sequence (P55072 1-480 R95G): as the sequence (P55072 1-480) above, with R95G counted along it
# T3 sequence (P55072 1-480 N387H): as the sequence (P55072 1-480) above, with N387H counted along it
# T4 sequence (P55072 1-480 R155P): as the sequence (P55072 1-480) above, with R155P counted along it
# T2 sequence (P55072 1-480 R155H): as the sequence (P55072 1-480) above, with R155H counted along it
binder,measurement,setting,value
B1,stoichiometry N,[1],3
B2,Kd,R95G ND1Lp97-ADP,~200 µM
same,Kd,R155H ND1Lp97-ADP,~80 µM
same,Kd,N387H ND1Lp97-ADP,~80 µM
same,Kd,R155P ND1Lp97-ADP,~200 µM
same,Kd,[2],22 ± 2 µM
